Article PMC9372576, “Interaction of the gas vesicle proteins GvpA, GvpC, GvpN, and GvpO of Halobacterium salinarum” (Frontiers in Microbiology, 2022)

B1: GvpA fragment A1-22 (domain or fragment, Halobacterium salinarum, UniProt P08958 1-22, looked up)
chain: MAQPDSSGLAEVLDRVLDKGVV
notes: GvpA of Halobacterium salinarum, the first 22 aa including alpha-helix 1; vector described in Winter et al., 2018 and Voelkner et al., 2020; source: Hfx. volcanii WR340 transformant, split-GFP fusion in living cells
B2: GvpC N-terminal fragment Nterm (domain or fragment, Halobacterium salinarum, UniProt P24574 10-130, looked up)
chain: MSTARDKFAESQQEFESYADEFAADITAKQDDVSDLVDAITDFQAEMTNTTDAFHTYGDEFAAEVDHLRADIDAQRDVIREMQDAFEAYADIFATDIADKQDIGNLLAAIEALRTEMNSTH
notes: GvpC of Halobacterium salinarum, amino acids 10-130, the first three alpha-helical repeats; GFP fragment at the N- or C-terminus; source: Hfx. volcanii WR340 transformant, split-GFP fusion in living cells
B3: GvpO fused to NGFP or CGFP (natural protein, Halobacterium salinarum, UniProt O51968 1-119, looked up)
chain: MADPANDRSEREEGGEDDETPPASDGNPSPSANSFTLSNAQTRAREAAQDLLEHQFEGMIKAESNDEGWRTVVEVVERNAVPDTQDIIGRYEITLDGTGDVTGYELLERYRRGDMKEEL
notes: GvpO of the p-vac region of Halobacterium salinarum; gvpO amplified from the p-vac region; GFP fragment at the N- or C-terminus, 14 or 16 aa linker; source: Hfx. volcanii WR340 transformant, split-GFP fusion in living cells

What was measured:
Assay in all cases: split reporter (BiFC, NanoBiT); split-GFP (NGFP and CGFP of salt-stable mGFP2) in Hfx. volcanii transformants, 24 h 37 °C then 24 h 30 °C; relative fluorescence (rf) against the wild type; the highest of eight tag combinations is given
GvpA fragment A20-47 = biological target: T1, GvpA fragment A20-47 (Halobacterium salinarum, UniProt P08958 20-47); conditions: partners not purified
T1 construct: GvpA of Halobacterium salinarum, the two beta-sheets beta1-beta2; vector described in earlier work; source: Hfx. volcanii WR340 transformant, split-GFP fusion in living cells
T1 chain (looked up): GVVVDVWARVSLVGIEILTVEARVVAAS

GvpA fragment A1-43 = biological target: T2, GvpA fragment A1-43 (Halobacterium salinarum, UniProt P08958 1-43); conditions: partners not purified
T2 construct: GvpA of Halobacterium salinarum, alpha1-beta1-beta2; vector described in earlier work; source: Hfx. volcanii WR340 transformant, split-GFP fusion in living cells
T2 chain (looked up): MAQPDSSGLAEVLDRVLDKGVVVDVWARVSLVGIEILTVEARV

GvpA fragment A1-34 = biological target: T3, GvpA fragment A1-34 (Halobacterium salinarum, UniProt P08958 1-34); conditions: partners not purified
T3 construct: GvpA of Halobacterium salinarum, alpha1 plus beta-sheet 1; vector described in earlier work; source: Hfx. volcanii WR340 transformant, split-GFP fusion in living cells
T3 chain (looked up): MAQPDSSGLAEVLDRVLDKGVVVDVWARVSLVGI

GvpA fragment A44-76 = biological target: T4, GvpA fragment A44-76 (Halobacterium salinarum, UniProt P08958 44-76); conditions: partners not purified
T4 construct: GvpA of Halobacterium salinarum, mainly helix alpha3; vector described in earlier work; source: Hfx. volcanii WR340 transformant, split-GFP fusion in living cells
T4 chain (looked up): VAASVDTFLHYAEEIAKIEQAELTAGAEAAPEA

GvpA fragment A1-22 = biological target: B1; conditions: partners not purified
[1] = biological target: T5, GvpC C-terminal fragment Cterm (Halobacterium salinarum, UniProt P24574 329-382); conditions: partners not purified
T5 construct: GvpC of Halobacterium salinarum, aa 329-382, the globular C-terminal domain with a zinc-finger motif; GFP fragment at the N- or C-terminus; source: Hfx. volcanii WR340 transformant, split-GFP fusion in living cells
T5 sequence (looked up): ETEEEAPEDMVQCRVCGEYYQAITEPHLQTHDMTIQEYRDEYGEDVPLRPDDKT

[2] = biological target: T6, GvpA fused to NGFP or CGFP (Halobacterium salinarum, UniProt P08958 1-76); conditions: partners not purified
T6 construct: the entire GvpA of the p-vac region of Halobacterium salinarum; gvpA reading frame; NGFP (mGFP2 up to aa 157) or CGFP (from aa 158) at the N- or C-terminus through a 14 aa (pJAS) or 16 aa (pWLfdx) linker; with GvpF and its variants CGFP stood at the C-terminus of GvpA (AC); also called NA; AN; source: Hfx. volcanii WR340 transformant, split-GFP fusion in living cells
T6 sequence (looked up): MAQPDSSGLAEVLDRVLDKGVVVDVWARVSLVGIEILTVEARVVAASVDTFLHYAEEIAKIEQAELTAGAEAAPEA

[3] = biological target: T7, GvpC fused to NGFP or CGFP (Halobacterium salinarum, UniProt P24574 1-382); conditions: partners not purified
T7 construct: GvpC of the p-vac region of Halobacterium salinarum; gvpC amplified from the p-vac region; GFP fragment at the N- or C-terminus, 14 or 16 aa linker; source: Hfx. volcanii WR340 transformant, split-GFP fusion in living cells
T7 sequence (looked up): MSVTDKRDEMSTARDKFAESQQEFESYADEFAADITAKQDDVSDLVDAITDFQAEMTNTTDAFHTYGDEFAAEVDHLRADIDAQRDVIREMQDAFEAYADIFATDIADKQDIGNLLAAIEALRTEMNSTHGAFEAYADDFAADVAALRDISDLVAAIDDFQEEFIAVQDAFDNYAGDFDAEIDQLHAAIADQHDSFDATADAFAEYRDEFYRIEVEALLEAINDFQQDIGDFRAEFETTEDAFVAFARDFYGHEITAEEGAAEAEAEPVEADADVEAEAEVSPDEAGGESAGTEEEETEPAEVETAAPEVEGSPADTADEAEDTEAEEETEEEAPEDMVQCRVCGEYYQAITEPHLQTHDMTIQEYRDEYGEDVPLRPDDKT

[4] = biological target: T8, GvpN fused to NGFP or CGFP (Halobacterium salinarum, UniProt Q9HI16 1-347); conditions: partners not purified
T8 construct: GvpN of the p-vac region of Halobacterium salinarum; gvpN amplified from the p-vac region; GFP fragment at the N- or C-terminus, 14 or 16 aa linker; source: Hfx. volcanii WR340 transformant, split-GFP fusion in living cells
T8 sequence (looked up): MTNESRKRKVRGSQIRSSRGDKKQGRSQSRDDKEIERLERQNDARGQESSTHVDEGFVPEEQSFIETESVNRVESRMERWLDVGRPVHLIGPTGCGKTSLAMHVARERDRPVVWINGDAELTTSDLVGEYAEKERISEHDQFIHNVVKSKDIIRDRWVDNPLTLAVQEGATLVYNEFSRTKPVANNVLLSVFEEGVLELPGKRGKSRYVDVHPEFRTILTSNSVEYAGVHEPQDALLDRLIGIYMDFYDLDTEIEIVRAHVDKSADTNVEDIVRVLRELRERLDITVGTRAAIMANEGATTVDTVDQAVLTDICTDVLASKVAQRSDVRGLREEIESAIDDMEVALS

[5] = biological target: the molecule itself

B1
relative fluorescence (rf) (GvpA fragment A20-47): ≤ 0.48 LAU/mm^2 | relative fluorescence (rf) (GvpA fragment A1-43): ≤ 0.48 LAU/mm^2 | relative fluorescence (rf) (GvpA fragment A1-34): ≤ 0.48 LAU/mm^2 | relative fluorescence (rf) (GvpA fragment A44-76): ≤ 0.48 LAU/mm^2

B2
relative fluorescence (rf) (GvpA fragment A1-22): 3.57 LAU/mm^2 | relative fluorescence (rf) [1]: 10.1 LAU/mm^2 | relative fluorescence (rf) [2]: < 2.5 LAU/mm^2

B3
relative fluorescence (rf) (GvpA fragment A1-22): 3 LAU/mm^2 | relative fluorescence (rf) [3]: < 5 LAU/mm^2 | relative fluorescence (rf) [4]: 12.5 LAU/mm^2 | relative fluorescence (rf) [5]: > 10 LAU/mm^2
